Assay results from a protein production outcome set (Wang et al. 2014).

Assay: label from the status in PepcDB records

Sequence	protein production
MLNQFPKLRLTPFTTGIVAIFLFSLVIRFWNLGQFNQLVFDEVYYAKFASDYWLGNDFFPSHPPLSHYLIALAMGLGQVFPVNPEQVNDLTGAVRSTWSYRWLNALTGATIPLLLGAIAYLLTQRRLVTLLTMGLVALDGLFLVESRYALNNIYLVFFGLLGQALVLWHLRQEKLWQLILGGISLACAGSVKWNGFAFLLGVYLLWAIAWVKPFFNQGWTKGERQANSLQLLDRDGENNQGFLSRWLIISPLKFAIWLVLVPVITYSVIWIPHLLMNGEYASLEGFWRIQRETWQYHRRVGNSPDIHPYCSPWYSWLLMARPIAYFYQKSGQFGLINDVHAMANPILLWFSTGAMALLTGTVIWQKIRQFSSQTINAPLRGITLYIEVNYAVNLLPWLGISRCTFFYHYLPAYAFSILALALILETLLDSPRHSHNVIAWAVLTLVAIAFWYWLPVFLGLPLTPRGFALRMLFPSWI	failed
MPRSTWFKALLLLVALWAPLSQAETGWQPIQETIRKSDKDNRQYQAIRLDNGMVVLLVSDPQAVKSLSALVVPVGSLEDPEAYQGLAHYLEHMSLMGSKKYPQADSLAEYLKMHGGSHNASTAPYRTAFYLEVENDALPGAVDRLADAIAEPLLDKKYAERERNAVNAELTMARTRDGMRMAQVSAETINPAHPGSKFSGGNLETLSDKPGNPVQQALKDFHEKYYSANLMKAVIYSNKPLPELAKMAADTFGRVPNKESKKPEITVPVVTDAQKGIIIHYVPALPRKVLRVEFRIDNNSAKFRSKTDELITYLIGNRSPGTLSDWLQKQGLVEGISANSDPIVNGNSGVLAISASLTDKGLANRDQVVAAIFSYLNLLREKGIDKQYFDELANVLDIDFRYPSITRDMDYVEWLADTMIRVPVEHTLDAVNIADRYDAKAVKERLAMMTPQNARIWYISPKEPHNKTAYFVDAPYQVDKISAQTFADWQKKAADIALSLPELNPYIPDDFSLIKSEKKYDHPELIVDESNLRVVYAPSRYFASEPKADVSLILRNPKAMDSARNQVMFALNDYLAGLALDQLSNQASVGGISFSTNANNGLMVNANGYTQRLPQLFQALLEGYFSYTATEDQLEQAKSWYNQMMDSAEKGKAFEQAIMPAQMLSQVPYFSRDERRKILPSITLKEVLAYRDALKSGARPEFMVIGNMTEAQATTLARDVQKQLGADGSEWCRNKDVVVDKKQSVIFEKAGNSTDSALAAVFVPTGYDEYTSSAYSSLLGQIVQPWFYNQLRTEEQLGYAVFAFPMSVGRQWGMGFLLQSNDKQPSFLWERYKAFFPTAEAKLRAMKPDEFAQIQQAVITQMLQAPQTLGEEASKLSKDFDRGNMRFDSRDKIVAQIKLLTPQKLADFFHQAVVEPQGMAILSQISGSQNGKAEYVHPEGWKVWENVSALQQTMPLMSEKNE	not failed
MVKELIEQGANVTGLVRDHVPQSNLYQGEHIKKMNIVRGSLEDLAVIERALGEYEIDTVFHLAAQAIVGVANRNPISTFEANILGTWNILEACRKHPLIKRVIVASSDKAYGDQENLPYDENMPLQGKHPYDVSKSCADLISHTYFHTYGLPVCITRCGNLYGGGDLNFNRIIPQTIQLVLNGEAPEIRSDGTFVRDYFYIEDAVQAYLLLAEKMEENNLAGEAFNFSNEIQLTVLELVEKILKKMNSNLKPKVLNQGSNEIKHQYLSAEKARKLLNWTPAYTIDEGLEKTIEWYTEFFKK	failed
MSEPYGKAFSLMRAEAEPAWRAYTHHAFVEGLKAGTLPREAFLHYLQQDYVFLIHFSRAWALAVVKSETHSEMLAAVGTVNALVAEEMQLHIGICEASGISQEALFATRERAENLAYTRFVLEAGYSGDLLDLLAALAPCVMGYGEIGKRLTAEATSTLYGDWIDTYGGDDYQAACKAVGTLLDDALERRLGAEFTSSPRWSRLCQTFHTATELEVGFWQMGLTP	not failed
MKAKPLSQDPGSKRYAYRINKEENRKELKHVKINESSLVQEGQKIDLPKKRYYRQRAHSNPFSDHQLEYPVSPQDMDWSKLYPYYKNAENGQMTKKVTIADIGCGFGGLMIDLSPAFPEDLILGMEIRVQVTNYVEDRIIALRNNTASKHGFQNINVLRGNAMKFLPNFFEKGQLSKMFFCFPDPHFKQRKHKARIITNTLLSEYAYVLKEGGVVYTITDVKDLHEWMVKHLEEHPLFERLSKEWEENDECVKIMRNATEEGKKVERKKGDKFVACFTRLPTPAIL	failed
MNSLSVIKPNNAMPMTAEYRQSIRTALKTSLYPGASDTSVDMVLAYCQAADLDPMTKPVHIVPMWIPEKKVDGRVMSSAGMRDVIMPGIELYRTKAHRTGEYAGQDEAVFGDTVCETLGGVQIRYPSWCRIAVYRMVAGERVRFAATVYWLEAYATARKDSPAPNSMWQKRPFGQLEKCAEALALRKAFPEAVGAQPTAEEMDAGRHTIEGETIHVAPIPVNKDIRDISGPYPQEEFEKNFPKWCDLIESGKTTADRIITMLHSKGKGQLSLEQLTAIRACAEDTSAEPVPTDNTPQESNTTDTEENT	not failed
MGVIVPGNSSPVPALSAGRSTVEGYDPKLHDPFFDGVSQQLADKGFITAAADDLITWARTGSLMWMTFGLACCAVEMMQASMPRYDLERYGFAPRASPRQSDVMIVAGTLTNKMAPALRKVYDQMPEPRYVISMGSCANGGGYYYYSYSVVRGCDRVVPVDIYVPGCPPTAEALVYGVLQLQKKIRRTGTIER	failed
KSIRLAKEKESQADYISTYVEWQYIDKNITQCFDKMTNMKLEVAWKAKKKDTVVQIHNQDFTVDLSTNTATAPQGQTFTVQRLVKA	not failed
MHGVEFAPLERQHGSQVLALLRGTLLVPLPRLHQRLEEAYERDARLGLAQVALCRLAGNAEKVVGVLLARVATRRTCCAQVYIDAVAVDAVFQGQGIGSRLLLRVLTPCLPDGLEVREVFLHTPLQATELVAFYRSCGFESDDEVIDNYYPRRWMPQAQALVLRWRPPTAAQHQHEERKGPQDADVS	not failed
MQTINATEIRNNFSYYIDTVVRDKPIAVKRNRDVLLFFSEQIIKDLLQDLKIHAELSKEDGIIIGTIDGFDLVVSGESEQEVIQKLAEDLLEYAQDYMNDFKLFYNAPNRKTHYPYILKVLLSSNIDEVKGYIYAEMV	not failed
DLDGLLQRTVERARDMLDADSAFLLLATDDETELEVRASTGLPSARQRFARVPVDAGPGRYGSARMPAVHDDLTAVPGAVPLLSGTGMRSVVTVPLKVEGRLTGSLGVAAESPSRYSNEEALRLQFAADRIALAVESA	failed
MPTNQDLQLAAHLRSQVTTLTRRLRREAQADPVQFSQLVVLGAIDRLGGDVTPSELAAAERMRSSNLAALLRELERGGLIVRHADPQDGRRTRVSLSSEGRRNLYGNRAKREEWLVRAMHACLDESERALLAAAGPLLTRLAQFEEP	not failed
MRMFFSGLMESLKENKITFLWVLLFFLVGIVLGSYTVYYMSDFNRVEITTYFNNFLEFLGGNSVSYTSILVDSIKSILPMVAIIVLLGYTAVGTPIILMMDLAKGYVIGFTFSLIVSMLGSKGVMLVLSGLMLQNLIFIPIIMLISVLAIRHSVTKLKMGVSRDRVKLDVSRAYLNFQGLLSLIIISGILIETYISPNLIRLVISR	failed
LIHKYKNFVRAKSRSYFLVGADREDIVQEGMIGLFKAIRDYKEDKLSSFKAFAELCITRQIITAIKTATRQKHIPLNSYVSLDKPIYDEESDRTLLDVISEAKVTDPEEMIISQEEYTDIESKISELLSDLERKVLSLYLDGRSYQEISEQLNRHVKSIDNALQRVKRKLERYMEMRESTTLNS	not failed
MKAEKNLNKTLKISYKALFFSFALTLIKLLAGFLGNSTALIADSIRSFSELINELKKLLEVFIASKPEDWSHNYGHGKVATLFTGAGACILLFAGIESISLASQELLIFIQGRETEAPEILALSAASLTLVSREIIPLFSSKGKEIEGTLSGTGIYTRNAQIRSLLLSCFVTLGIGCTFLPGKNWVVTDSFIAALMSLYLLGTSGKLLYGTANELIEASLDEEDNKKIRKIINTTEGVTGSGELKTRKIGNGIAINACITVSDSLNIQEVAEIADRVENRLKTVYGEDIYALVKAEPDPGRNCSFRKKMEFSEEGRKENKGINTQDKMLA	failed
MSDIAVRPIRAEDVPQACAILNRIIEIGGTTAFEQPVSEDEFDAWYVNGADLICCHVALDAAGAVAGFQWLGRNDSLPEGCGDIASFTRREPVLRGAGRALFACTVAVARDRGLAEINATIRADNALGLAYYGKMGFRDHVVTPAVPLRDGRPVDRISKRFDLRG	failed
MNTTPFPALSAETLLAVNTVGQWLAQNDFSGEQPYSSDCVVLAGNAVIPTIDAACRIAKAQGVPLLISGGIGHSTPFLYAVIARHPRYHTIRTSGRAEAAILADIANQFWHIPAEKIWLEDRSTNCGENARFSCALIRQAKENINTAIVVQDPTMQRRTIAAFRRVTNDDTDAPRWLSFPGFVPVLRHLNDGTRFANVEEGIWTVERYLSLIAGELPRLRDDETGYGPRGKDFIIHVDIPRDIENAWQVLQADTTLRSALGQRALRLEHHHHHH	not failed
MGHHHHHHSHGIVPGSVVLMAGEPGVGKSTLLLEVASRWASMKEGDGTRTALYVTAEESAGQVRLRAERTAAVKDTLYLAAESNLDVVFGHVNQVKPSLLIVDS	failed
MEEHGHHEMEGTPLGCHSHIKLLKINREHLVTNIRNTQCLVDNLLENGYFSAEDAEIVCACPTKPDKVRKILDLVQSKGEEVSEFFLYVLQQLEDAYVDLRLWLSEIGFSPSQLIRTKTIVNTDPVSRYTQQLRHQLGRDSKFMLCYAQKEDLLLEETYMDTLMELVGFNNENLGSLGGLDCLLDHSTGVLNEHGETVFVFGDAGVGKSMLLQRLQSLWASGRLTSTAKFFFHFRCRMFSCFKESDMLSLQDLLFKHFCYPEQDPEEVFSFLLRFPHTALFTFDGLDELHSDFDLSRVPDSCCPWEPAHPLVLLANLLSGRLLKGAGKLLTARTGVEVPRQLLRKKVLLRGFSPSHLRAYARRMFPERTAQEHLLQQLDANPNLCSLCGVPLFCWIIFRCFQHFQTVFEGSSSQLPDCAVTLTDVFLLVTEVHLNRPQPSSLVQRNTRSPAETLRAGWRTLHALGEVAHRGTDKSLFVFGQEEVQASKLQEGDLQLGFLRALPDVGPEQGQSYEFFHLTLQAFFTAFFLVADDKVSTRELLRFFREWTSPGEATSSSCHSSFFSFQCLGGRSRLGPDPFRNKDHFQFTNLFLCGLLAKARQKLLRQLVPKAILRRKRKALWAHLFASLRSYLKSLPRVQSGGFNQVHAMPTFLWMLRCIYETQSQKVGRLAARGISADYLKLAFCNACSADCSALSFVLHHFHRQLALDLDNNNLNDYGVQELQPCFSRLTVIRLSVNQITDTGVKVLCEELTKYKIVTFLGLYNNQITDIGARYVAQILDECRGLKHLKLGKNRITSEGGKCVALAVKNSTSIVDVGMWGNQIGDEGAKAFAEALKDHPSLTTLSLAFNGISPEGGKSLAQALKQNTTLTVIWLTKNELNDESAECFAEMLRVNQTLRHLWLIQNRITAKGTAQLARALQKNTAITEICLNGNLIKPEEAKVFENEKRIICF	failed
MTYLFVAAGGALGSTLRYWLSGLIAGAIGQSFPWGTLVINISGSIVIGAFATLTGPDGRVFIPGDWRQFFMVGVCGGYTTFSSFSLQTLTLAQEGQGLWAAANVVLSVVFCLIGVWLGHVGAVLINEGV	failed
